Results on five substances are retold here after patent US20140120557A1.

pKd: −log10 of the molar value. Where only a bound is given, the exact number is not on record here.

For assay [1], the target named is 5C.C7 TCR (as measured by surface plasmon resonance) (mouse). The assay can be described thus: SPR.
Assay [2] has as its target 5C.C7 TCR on 5C.C7 T cell blasts (mouse) (UniProt A2KF29). Put plainly: cell-based or functional assay.
The target is the same in assay [3]. Put plainly: flow cytometry; 5C.C7 T cell blasts, one hour at room temperature after staining.
Assay [4] has the same target. The assay can be described thus: flow cytometry; 2 µM BioMCC(ASA)-I-Ek photocrosslinked to 5C.C7 T cell blasts, against about 38,000 TCRs per T cell.
For assay [5], the target named is OT-1 TCR on naïve OT-1 T cells (mouse). The assay can be described thus: flow cytometry; naïve OT-1 T cells, pMHC 1 µM, UV photocrosslinking, PE-SAv.

Sequence of 102S-I-Ek (P04224 26-216): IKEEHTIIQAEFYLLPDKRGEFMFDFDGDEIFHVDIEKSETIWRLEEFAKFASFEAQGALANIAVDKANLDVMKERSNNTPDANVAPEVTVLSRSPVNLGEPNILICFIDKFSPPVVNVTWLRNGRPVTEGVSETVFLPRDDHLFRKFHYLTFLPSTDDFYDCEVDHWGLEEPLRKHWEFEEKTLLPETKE
Sequence of PE-conjugated MCC-I-Ek tetramer (P04224 26-216): as above
Sequence of MCC(Cy5)-I-Ek (P04224 26-216): as above
Sequence of OVA(ASA)-Kb (P01901 22-305): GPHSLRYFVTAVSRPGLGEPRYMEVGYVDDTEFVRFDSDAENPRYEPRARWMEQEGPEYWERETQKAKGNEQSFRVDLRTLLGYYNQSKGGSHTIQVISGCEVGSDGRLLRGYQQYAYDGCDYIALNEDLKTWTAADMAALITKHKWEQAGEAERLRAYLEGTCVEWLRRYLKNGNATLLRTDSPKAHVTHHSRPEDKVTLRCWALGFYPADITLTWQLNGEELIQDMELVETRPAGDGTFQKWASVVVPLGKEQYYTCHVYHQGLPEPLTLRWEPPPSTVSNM

Regarding “102S-I-Ek (from UniProt P04224 26-216) (peptide-MHC)”, in assay [1], the pKd is 3.69 and the t1/2 was 0.83 s.
On to “BioMCC(ASA)-I-Ek (from UniProt P04224 26-216) (peptide-MHC)”, for which, in assay [2], the duration of calcium flux on planar lipid bilayer with ICAM-1 and B7-1 is over 10 min; the duration of calcium flux on planar lipid bilayer without ICAM-1 and B7-1 was 3 min; the peak of fura-2 excitation ratio (340 nm/380 nm) above the baseline; 5100 or 7900 photocrosslinked pMHCs per cell came to 2.5 fold. Besides, in assay [3], the decrease of the staining signal after one hour at room temperature is 5%. Besides, in assay [4], the percent of the total TCRs on a T cell surface permanently bound was 16%.
On to “MCC(Cy5)-I-Ek (from UniProt P04224 26-216) (peptide-MHC)”, for which the peak of fura-2 excitation ratio (340 nm/380 nm) above the baseline; 6100 standard agonist pMHCs per cell in assay [2] worked out at 2.5 fold.
As to “OVA(ASA)-Kb (from UniProt P01901 22-305) (peptide-MHC)”, the fold efficiency of staining against the null SIAAFASL(ASA)-Kb monomer in assay [5] is over 10 fold.
With “PE-conjugated MCC-I-Ek tetramer (from UniProt P04224 26-216) (peptide-MHC)”, the decrease of the staining signal after one hour at room temperature in assay [3] is 50%.
